Measured values taken from publication PMC10094494.

Biological target: D-psicose 3-epimerase from Iocasia fonsfrigidae strain SP3-1 (Iocasia fonsfrigidae strain SP3-1)
Experiment: native gel or EMSA; native-PAGE of the purified recombinant enzyme, run like SDS-PAGE but without SDS, beta-mercaptoethanol and heat

Substance “D-psicose 3-epimerase from Iocasia fonsfrigidae strain SP3-1 (enzyme)” has a stoichiometry N of 2.
